Measured values published in patent US20190330310A1 (VIB VZW, published 2019).

B2: ERN1-Tyk2(C)-HA (other)
chain: IFGSTSTVTLPETLLFVSTLDGSLHAVSKRTGSIKWTLKEDPVLQVPTHVEEPAFLPDPNDGSLYTLGSKNNEGLTKLPFTIPELVQASPCRSSDGILYMGKKQDIWYVIDLLTGEKQQTLSSAFADSLCPSTSLLYLGRTEYTITMYDTKTRELRWNATYFDYAASLPEDDVDYKMSHFVSNGDGLVVTVDSESGDVLWIQNYASPVVAFYVWQREGLRKVMHINVAVETLRYLTFMSGEVGRITKWKYPFPKETEAKSKLTPTLYVGKYSTSLYASPSMVHEGVAVVPRGSTLPLLEGPQTDGVTIGDKGECVITPSTDVKFDPGLKSKNKLNYLRNYWLLIGHHETPLSASTKMLERFPNNLPKHRENVIPADSEKKSFEEVINLVDQTSENAPTTVSRDVEEKPAHAPARPEAPVDSMLKDMATIILSTFLLIGWVAFIITYPLSMHQQQQLQHQQFQKELEKIQLLQQQQQQLPFHPPGDTAQDGELLDTSGPYSESSGTSSPSTSPRASNHSLCSGSSASKAGSSPSLEQDDGDEETSVVIVGKISFCPKDVLGHGAEGTIVYRGMFDNRDVAVKRILPECFSFADREVQLLRESDEHPNVIRYFCTEKDRQFQYIAIELCAATLQEYVEQKDFAHLGLEPITLLQQTTSGLAHLHSLNIVHRDLKPHNILISMPNAHGKIKAMISDFGLCKKLAVGRHSFSRRSGVPGTEGWIAPEMLSEDCKENPTYTVDIFSAGCVFYYVISEGSHPFGKSLQRQANILLGACSLDCLHPEKHEDVIARELIEKMIAMDPQKRPSAKHVLKHPFFWSLEKQLQFFQDVSDRIEKESLDGPIVKQLERGGRAVVKMDWRENITVPLQTDLRKFRTYKGGSVRDLLRAMRNKKHHYRELPAEVRETLGSLPDDFVCYFTSRFPHLLAHTYRAMELCSHERLFQPYYFHEPPEPQPPVTPDALAAAGGSITQLSHLGQGTRTNVYEGRLRVEGSGDPEEGKMDDEDPLVPGRDRGQELRVVLKVLDPSHHDIALAFYETASLMSQVSHTHLAFVHGVCVRGPENSMVTEYVEHGPLDVWLRRERGHVPMAWKMVVAQQLASALSYLENKNLVHGNVCGRNILLARLGLAEGTSPFIKLSDPGVGLGALSREERVERIPWLAPECLPGGANSLSTAMDKWGFGATLLEICFDGEAPLQSRSPSEKEHFYQRQHRLPEPSCPQLATLTSQCLTYEPTQRPSFRTILRDLTRVQPHNLADVLTVNRDSPAVGPTTFHKRYLKKIRDLGEGHFGKVSLYCYDPTNDGTGEMVAVKALKADCGPQHRSGWKQEIDILRTLYHEHIIKYKGCCEDQGEKSLQLVMEYVPLGSLRDYLPRHSIGLAQLLLFAQQICEGMAYLHAHDYIHRDLAARNVLLDNDRLVKIGDFGLAKAVPEGHEYYRVREDGDSPVFWYAPECLKEYKFYYASDVWSFGVTLYELLTHCDSSQSPPTKFLELIGIAQGQMTVLRLTELLERGERLPRPDKCPCEVYHLMKNCWETEASFRPTFENLIPILKTVHEKYQGQAPSVFSVCLEYPYDVPDYA
notes: Fusion protein expressed in transfected HEK293-T cells; also called ERN1-Tyk2-HA; ERN1-Tyk2(C) fusion construct

Key:
HA-Tyk2(C)-SERT = biological target: T1, HA-Tyk2(C)-SERT (human); test: luciferase reporter interaction assay in HEK293-T cells
T1 construct: Fusion protein expressed in transfected HEK293-T cells; also called pSVSport-HA-Tyk2(C)-SERT; SERT kinase fusion construct

HA-Tyk2(C)-RTp66 = biological target: T2, HA-Tyk2(C)-RTp66 (HIV-1); test: as above
T2 construct: also called pSVSport-HA-Tyk2(C)-RTp66; RTp66 kinase fusion construct

[1] = biological target: T3, unfused gp130 receptor fragment (pMG1) (human, UniProt P40189 760-918); test: luciferase reporter interaction assay in HEK293-T cells, tunicamycin 0-0.5-1-2 µg/ml
T3 construct: Negative control prey; also called empty prey
T3 sequence: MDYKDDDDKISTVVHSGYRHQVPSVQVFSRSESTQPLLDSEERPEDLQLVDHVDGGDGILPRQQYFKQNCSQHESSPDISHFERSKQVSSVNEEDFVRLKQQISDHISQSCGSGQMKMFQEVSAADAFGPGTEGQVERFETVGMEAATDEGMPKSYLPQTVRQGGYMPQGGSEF
Protocol: In a first experiment, cells were transfected with the following combinations of plasmids (500 ng of the kinase fusion construct, 100 ng of the gp130 fusion construct and 50 ng of the luciferase reporter construct) according to the methods described above:
After transfection, cells were treated with 0-0.5-1-2 μg/ml tunicamycin, final concentration.

ERN1-Tyk2(C)-HA = biological target: B2; test: luciferase reporter interaction assay in HEK293-T cells, tunicamycin 0-0.04-0.2-1-5 µg/ml
Protocol: After transfection, cells were treated with 0-0.04-0.2-1-5 μg/ml tunicamycin, final concentration. The luciferase data are presented as fold induction relative to the signal obtained in cells transfected with unfused gp130 (empty prey; transfection a) and treated with the same concentration tunicamycin. Expression of the different fusion proteins was confirmed using Western blot.

ERN1(K599A)-Tyk2(C)-HA = biological target: T4, ERN1(K599A)-Tyk2(C)-HA (human); test: luciferase reporter interaction assay in HEK293-T cells, vehicle or 1 µg/ml tunicamycin
T4 construct: also called pcDNA5/FRT/TO-ERN1(K599A)-Tyk2(C)-HA
Protocol: (§1) After transfection, cells were either vehicle (DMSO) treated or treated with 1 μg/ml tunicamycin (final concentration).

ERN1(D123P)-Tyk2(C)-HA = biological target: T5, ERN1(D123P)-Tyk2(C)-HA (human); test: as above
T5 construct: Mutation in the luminal domain of ERN1; also called pcDNA5/FRT/TO-ERN1(D123P)-Tyk2(C)-HA; ERN1(D123P)-Tyk2(K)-HA
Protocol: as §1

B1: flag tag-gp130-VAMP1 (other)
chain: MDYKDDDDKISTVVHSGYRHQVPSVQVFSRSESTQPLLDSEERPEDLQLVDHVDGGDGILPRQQYFKQNCSQHESSPDISHFERSKQVSSVNEEDFVRLKQQISDHISQSCGSGQMKMFQEVSAADAFGPGTEGQVERFETVGMEAATDEGMPKSYLPQTVRQGGYMPQGGSELSTSLYKKVGMSAPAQPPAEGTEGTAPGGGPPGPPPNMTSNRRLQQTQAQVEEVVDIIRVNVDKVLERDQKLSELDDRADALQAGASQFESSAAKLKRKYWWKNCKMMIMLGAICAIIVVVIVSKYRCPTFLYKVV
notes: also called pMG1-VAMP1; VAMP1 gp130 fusion construct
HA-Tyk2(C)-SERT
  binding result: binds
HA-Tyk2(C)-RTp66
  binding result: no binding

## B2
[1]
  binding result: no binding

B3: flag-tag-ERN1cyt-gp130 (other)
chain: MDYKDDDDKISEFFCPKDVLGHGAEGTIVYRGMFDNRDVAVKRILPECFSFADREVQLLRESDEHPNVIRYFCTEKDRQFQYIAIELCAATLQEYVEQKDFAHLGLEPITLLQQTTSGLAHLHSLNIVHRDLKPHNILISMPNAHGKIKAMISDFGLCKKLAVGRHSFSRRSGVPGTEGWIAPEMLSEDCKENPTYTVDIFSAGCVFYYVISEGSHPFGKSLQRQANILLGACSLDCLHPEKHEDVIARELIEKMIAMDPQKRPSAKHVLKHPFFWSLEKQLQFFQDVSDRIEKESLDGPIVKQLERGGRAVVKMDWRENITVPLQTDLRKFRTYKGGSVRDLLRAMRNKKHHYRELPAEVRETLGSLPDDFVCYFTSRFPHLLAHTYRAMELCSHERLFQPYYFHEPPEPQPPVTPDALPSRGSGGSGGSTVVHSGYRHQVPSVQVFSRSESTQPLLDSEERPEDLQLVDHVDGGDGILPRQQYFKQNCSQHESSPDISHFERSKQVSSVNEEDFVRLKQQISDHISQSCGSGQMKMFQEVSAADAFGPGTEGQVERFETVGMEAATDEGMPKSYLPQTVRQGGYMPQGGSELSTSLYKKAGYLPQTVRQGGYMPQ
notes: also called pMG2C-ERN1cyt; gp130 fusion containing only the cytoplasmic portion of ERN1
ERN1-Tyk2(C)-HA
  binding result: no binding

B4: flag tag-ERN1-gp130 (other)
chain: IFGSTSTVTLPETLLFVSTLDGSLHAVSKRTGSIKWTLKEDPVLQVPTHVEEPAFLPDPNDGSLYTLGSKNNEGLTKLPFTIPELVQASPCRSSDGILYMGKKQDIWYVIDLLTGEKQQTLSSAFADSLCPSTSLLYLGRTEYTITMYDTKTRELRWNATYFDYAASLPEDDVDYKMSHFVSNGDGLVVTVDSESGDVLWIQNYASPVVAFYVWQREGLRKVMHINVAVETLRYLTFMSGEVGRITKWKYPFPKETEAKSKLTPTLYVGKYSTSLYASPSMVHEGVAVVPRGSTLPLLEGPQTDGVTIGDKGECVITPSTDVKFDPGLKSKNKLNYLRNYWLLIGHHETPLSASTKMLERFPNNLPKHRENVIPADSEKKSFEEVINLVDQTSENAPTTVSRDVEEKPAHAPARPEAPVDSMLKDMATIILSTFLLIGWVAFIITYPLSMHQQQQLQHQQFQKELEKIQLLQQQQQQLPFHPPGDTAQDGELLDTSGPYSESSGTSSPSTSPRASNHSLCSGSSASKAGSSPSLEQDDGDEETSVVIVGKISFCPKDVLGHGAEGTIVYRGMFDNRDVAVKRILPECFSFADREVQLLRESDEHPNVIRYFCTEKDRQFQYIAIELCAATLQEYVEQKDFAHLGLEPITLLQQTTSGLAHLHSLNIVHRDLKPHNILISMPNAHGKIKAMISDFGLCKKLAVGRHSFSRRSGVPGTEGWIAPEMLSEDCKENPTYTVDIFSAGCVFYYVISEGSHPFGKSLQRQANILLGACSLDCLHPEKHEDVIARELIEKMIAMDPQKRPSAKHVLKHPFFWSLEKQLQFFQDVSDRIEKESLDGPIVKQLERGGRAVVKMDWRENITVPLQTDLRKFRTYKGGSVRDLLRAMRNKKHHYRELPAEVRETLGSLPDDFVCYFTSRFPHLLAHTYRAMELCSHERLFQPYYFHEPPEPQPPVTPDALSRGSGGSGGSTVVHSGYRHQVPSVQVFSRSESTQPLLDSEERPEDLQLVDHVDGGDGILPRQQYFKQNCSQHESSPDISHFERSKQVSSVNEEDFVRLKQQISDHISQSCGSGQMKMFQEVSAADAFGPGTEGQVERFETVGMEAATDEGMPKSYLPQTVRQGGYMPQGGSELSTSLYKKAGYLPQTVRQGGYMPQ
notes: Fusion protein expressed in transfected HEK293-T cells; also called ERN1-gp130 fusion construct; pMG2C-ERN1
ERN1(K599A)-Tyk2(C)-HA
  binding result: no binding
ERN1(D123P)-Tyk2(C)-HA
  binding result: no binding
